Laboratory results from US8980609B2, “Uniformly conjugated serine hydrolases” (Israel Institute for Biological Research, priority 2005, dated 2015).

Legend:
[1] = mice, earlier reports; cited from earlier work
anti-AChE antibody = experiment: Immunogenicity in rhesus macaques: anti-AChE antibody formation by ELISA after repeated monthly administration; assay type: in vivo; conditions: monthly intervals, no adjuvant
Description: Anti-AChE antibody levels elicited by PEGylated rHuAChE, were compared to those induced by nonmodified rHuAChE or FBS-AChE, following their administration to rhesus macaques. To this end, non-modified or PEG-modified AChE or the heterologous FBS-AChE (no adjuvant included) were repeatedly administered to monkeys at monthly intervals, and anti-AChE antibody formation was monitored by ELISA (FIG. 8).

Molecule | MRT (mean residual time) [1] | development of anti-AChE antibody after repeated administrations (anti-AChE antibody)
horse BChE: serum derived horse butyrylcholinesterase [reference compound] | approximately 1,400 minutes | 
fetal bovine AChE: serum derived fetal bovine AChE; heterologous FBS-AChE in the monkey study (protein, UniProt P23795 31-613, looked up) Acetylcholinesterase: EGPEDPELLVMVRGGRLRGLRLMAPRGPVSAFLGIPFAEPPVGPRRFLPPEPKRPWPGVLNATAFQSVCYQYVDTLYPGFEGTEMWNPNRELSEDCLYLNVWTPYPRPSSPTPVLVWIYGGGFYSGASSLDVYDGRFLTQAEGTVLVSMNYRVGAFGFLALPGSREAPGNVGLLDQRLALQWVQENVAAFGGDPTSVTLFGESAGAASVGMHLLSPPSRGLFHRAVLQSGAPNGPWATVGVGEARRRATLLARLVGCPPGGAGGNDTELVACLRARPAQDLVDHEWRVLPQESVFRFSFVPVVDGDFLSDTPEALINAGDFHGLQVLVGVVKDEGSYFLVYGAPGFSKDNESLISRAQFLAGVRVGVPQASDLAAEAVVLHYTDWLHPEDPARLREALSDVVGDHNVVCPVAQLAGRLAAQGARVYAYIFEHRASTLSWPLWMGVPHGYEIEFIFGLPLEPSLNYTIEERTFAQRLMRYWANFARTGDPNDPRDPKAPQWPPYTAGAQQYVSLNLRPLEVRRGLRAQACAFWNRFLPKLLSATDTLDEAERQWKAEFHRWSSYMVHWKNQFDHYSKQDRCSDL | approximately 1,400 minutes | following the third administration
serum derived human BChE: serum derived human butyrylcholinesterase (protein, UniProt P06276 29-602, looked up) Cholinesterase: EDDIIIATKNGKVRGMNLTVFGGTVTAFLGIPYAQPPLGRLRFKKPQSLTKWSDIWNATKYANSCCQNIDQSFPGFHGSEMWNPNTDLSEDCLYLNVWIPAPKPKNATVLIWIYGGGFQTGTSSLHVYDGKFLARVERVIVVSMNYRVGALGFLALPGNPEAPGNMGLFDQQLALQWVQKNIAAFGGNPKSVTLFGESAGAASVSLHLLSPGSHSLFTRAILQSGSFNAPWAVTSLYEARNRTLNLAKLTGCSRENETEIIKCLRNKDPQEILLNEAFVVPYGTPLSVNFGPTVDGDFLTDMPDILLELGQFKKTQILVGVNKDEGTAFLVYGAPGFSKDNNSIITRKEFQEGLKIFFPGVSEFGKESILFHYTDWVDDQRPENYREALGDVVGDYNFICPALEFTKKFSEWGNNAFFYYFEHRSSKLPWPEWMGVMHGYEIEFVFGLPLERRDNYTKAEEILSRSIVKRWANFAKYGNPNETQNNSTSWPVFKSTEQKYLTLNTESTRIMTKLRAQQCRFWTSFFPKVLEMTGNIDEAEWEWKAGFHRWNNYMMDWKNQFNDYTSKKESCVGL | approximately 1,400 minutes | 
